We go through 14 molecules from patent US20150344570A1 (published 2015).

For test [1], the target named is T1, FcγRIIIa (human, UniProt P08637 17-208).
T1 construct: extracellular domain; Soluble extracellular domain with a C-terminal His tag; also called FcgRIIIa; 3a; not shown: His tag attached to the C terminus
Briefly: SPR; He/Con_3a (FcγRIIIa) divided by He/Con_2b (FcγRIIb). A general note: Surface plasmon resonance follows binding to a sensor surface in real time, without labels.

The target in test [2] is T2, FcγRIIb (human, UniProt P31994 43-217).
T2 construct: extracellular domain; Soluble extracellular domain with a C-terminal His tag, expressed in FreeStyle293 cells; also called FcgRIIb; 2b; not shown: His tag attached to the C terminus
T2 sequence (looked up): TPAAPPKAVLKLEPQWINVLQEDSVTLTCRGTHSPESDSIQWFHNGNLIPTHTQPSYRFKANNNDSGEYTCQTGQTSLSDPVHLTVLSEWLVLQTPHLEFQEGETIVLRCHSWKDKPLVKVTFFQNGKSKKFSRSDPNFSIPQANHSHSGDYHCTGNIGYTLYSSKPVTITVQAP
In words: SPR (Biacore), antibody captured on chip, FcγR as analyte.

Test [3] deals with T1, FcγRIIIa. The description is as above.

T1 sequence (P08637 17-208): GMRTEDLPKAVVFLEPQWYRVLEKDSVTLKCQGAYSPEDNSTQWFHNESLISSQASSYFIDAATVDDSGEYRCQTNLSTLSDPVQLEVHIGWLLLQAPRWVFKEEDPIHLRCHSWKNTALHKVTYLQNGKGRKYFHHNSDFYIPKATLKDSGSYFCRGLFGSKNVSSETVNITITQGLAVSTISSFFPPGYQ

B1: GpH7-A5/GpH7-B3 variant S239_07I/GpL16-k0 (antibody, human IgG1, kappa)
heavy 1: not shown
heavy 2: not shown
light: DIVMTQSPLSLPVTPGEPASISCQASESLVHSNRNTYLHWYLQKPGQSPQLLIYKVSNRFSGVPDRFSGSGSGTDFTLKISRVEAEDVGVYYCSQNTHVPPTFGQGTKVEIERTVAAPSVFIFPPSDEQLKSGTASVVCLLNNFYPREAKVQWKVDNALQSGNSQESVTEQDSKDSTYSLSSTLTLSKADYEKHKVYACEVTHQGLSSPVTKSFNRGEC
notes: Heterodimerized anti-glypican-3 IgG1; the mutation is in the GpH7-B3 chain only; also called He Ab
Regarding B1, the “He_3a/2b (IIIa/IIb)” value in test [1] was 0.74 ratio. The He/Con_2b in test [2] was 107 relative binding, GpH7-A5/GpH7-B3/GpL16-k0 = 100. In addition, the He/Con_3a in test [3] was 79.3 relative binding, GpH7-A5/GpH7-B3/GpL16-k0 = 100.

B2: GpH7-A5/GpH7-B3 variant P238_15Y/GpL16-k0 (antibody, human IgG1, kappa)
heavy 1: not shown
heavy 2: not shown
light: B1 light
notes: as for B1
For the molecule B2, the “He_3a/2b (IIIa/IIb)” value in test [1] is 0.3 ratio. Besides, the He/Con_2b in test [2] is 218 relative binding, GpH7-A5/GpH7-B3/GpL16-k0 = 100. In addition, the He/Con_3a in test [3] was 64.5 relative binding, GpH7-A5/GpH7-B3/GpL16-k0 = 100.

B3: GpH7-A5/GpH7-B3 variant S239_01G/GpL16-k0 (antibody, human IgG1, kappa)
heavy 1: not shown
heavy 2: not shown
light: B1 light
notes: Heterodimerized anti-glypican-3 IgG1; also called He Ab
As for B3, in test [1], the “He_3a/2b (IIIa/IIb)” value came out at 0.53 ratio. In addition, the He/Con_2b in test [2] was 144 relative binding, GpH7-A5/GpH7-B3/GpL16-k0 = 100. For the same molecule, the He/Con_3a in test [3] is 76.2 relative binding, GpH7-A5/GpH7-B3/GpL16-k0 = 100.

B4: GpH7-A5/GpH7-B3 variant S239_08L/GpL16-k0 (antibody, human IgG1, kappa)
heavy 1: not shown
heavy 2: not shown
light: B1 light
notes: as for B1
In the case of B4, the “He_3a/2b (IIIa/IIb)” value in test [1] stood at 0.68 ratio. The He/Con_2b in test [2] was 140 relative binding, GpH7-A5/GpH7-B3/GpL16-k0 = 100. Besides, in test [3], the He/Con_3a is 95.3 relative binding, GpH7-A5/GpH7-B3/GpL16-k0 = 100.

B5: GpH7-A5/GpH7-B3 variant P238_06M/GpL16-k0 (antibody, human IgG1, kappa)
heavy 1: not shown
heavy 2: not shown
light: B1 light
notes: as for B1
For B5, the “He_3a/2b (IIIa/IIb)” value in test [1] worked out at 0.18 ratio. Besides, the He/Con_2b in test [2] is 174 relative binding, GpH7-A5/GpH7-B3/GpL16-k0 = 100. In addition, the He/Con_3a in test [3] was 30.5 relative binding, GpH7-A5/GpH7-B3/GpL16-k0 = 100.

B6: GpH7-A5/GpH7-B3 variant P238_11K/GpL16-k0 (antibody, human IgG1, kappa)
heavy 1: not shown
heavy 2: not shown
light: B1 light
notes: as for B1
For B6, the “He_3a/2b (IIIa/IIb)” value in test [1] was 0.57 ratio. Also, the He/Con_2b in test [2] is 18.1 relative binding, GpH7-A5/GpH7-B3/GpL16-k0 = 100. Besides, in test [3], the He/Con_3a is 10.4 relative binding, GpH7-A5/GpH7-B3/GpL16-k0 = 100.

B7: GpH7-A5/GpH7-B3 variant P238_19Q/GpL16-k0 (antibody, human IgG1, kappa)
heavy 1: not shown
heavy 2: not shown
light: B1 light
notes: as for B1
For the molecule B7, in test [1], the “He_3a/2b (IIIa/IIb)” value came out at 0.51 ratio. Also, the He/Con_2b in test [2] is 110 relative binding, GpH7-A5/GpH7-B3/GpL16-k0 = 100. Besides, in test [3], the He/Con_3a was 55.8 relative binding, GpH7-A5/GpH7-B3/GpL16-k0 = 100.

B8: GpH7-A5/GpH7-B3 variant P238_20W/GpL16-k0 (antibody, human IgG1, kappa)
heavy 1: not shown
heavy 2: not shown
light: B1 light
notes: as for B1
Regarding B8, the “He_3a/2b (IIIa/IIb)” value in test [1] is 0.4 ratio. The He/Con_2b in test [2] is 123 relative binding, GpH7-A5/GpH7-B3/GpL16-k0 = 100. In addition, the He/Con_3a in test [3] was 49.7 relative binding, GpH7-A5/GpH7-B3/GpL16-k0 = 100.

B9: GpH7-A5/GpH7-B3 variant P238_10E/GpL16-k0 (antibody, human IgG1, kappa)
heavy 1: not shown
heavy 2: not shown
light: B1 light
notes: as for B1
For B9, the “He_3a/2b (IIIa/IIb)” value in test [1] amounted to 0.45 ratio. The He/Con_2b in test [2] is 232 relative binding, GpH7-A5/GpH7-B3/GpL16-k0 = 100. Also, in test [3], the He/Con_3a is 105 relative binding, GpH7-A5/GpH7-B3/GpL16-k0 = 100.

B10: GpH7-A5/GpH7-B3 variant P238_14T/GpL16-k0 (antibody, human IgG1, kappa)
heavy 1: not shown
heavy 2: not shown
light: B1 light
notes: as for B1
For B10, the “He_3a/2b (IIIa/IIb)” value in test [1] is 0.55 ratio. Further, in test [2], the He/Con_2b was 50.7 relative binding, GpH7-A5/GpH7-B3/GpL16-k0 = 100. In addition, the He/Con_3a in test [3] was 28 relative binding, GpH7-A5/GpH7-B3/GpL16-k0 = 100.

B11: GpH7-A5/GpH7-B3 variant S239_06M/GpL16-k0 (antibody, human IgG1, kappa)
heavy 1: not shown
heavy 2: not shown
light: B1 light
notes: as for B1
On to B11, for which, in test [1], the “He_3a/2b (IIIa/IIb)” value was 0.78 ratio. Further, the He/Con_2b in test [2] was 101 relative binding, GpH7-A5/GpH7-B3/GpL16-k0 = 100. In addition, the He/Con_3a in test [3] is 78.2 relative binding, GpH7-A5/GpH7-B3/GpL16-k0 = 100.

B12: GpH7-A5/GpH7-B3 variant P238_08L/GpL16-k0 (antibody, human IgG1, kappa)
heavy 1: not shown
heavy 2: not shown
light: B1 light
notes: as for B1
With B12, the “He_3a/2b (IIIa/IIb)” value in test [1] was found to be 0.37 ratio. For the same molecule, the He/Con_2b in test [2] is 204 relative binding, GpH7-A5/GpH7-B3/GpL16-k0 = 100. In addition, in test [3], the He/Con_3a is 75.5 relative binding, GpH7-A5/GpH7-B3/GpL16-k0 = 100.

B13: GpH7-A5/GpH7-B3 variant S239_04F/GpL16-k0 (antibody, human IgG1, kappa)
heavy 1: not shown
heavy 2: not shown
light: B1 light
notes: as for B1
For the molecule B13, the “He_3a/2b (IIIa/IIb)” value in test [1] worked out at 0.57 ratio. In addition, the He/Con_2b in test [2] is 44.1 relative binding, GpH7-A5/GpH7-B3/GpL16-k0 = 100. In test [3], the He/Con_3a is 25.3 relative binding, GpH7-A5/GpH7-B3/GpL16-k0 = 100.

B14: GpH7-A5/GpH7-B3 variant P238_07I/GpL16-k0 (antibody, human IgG1, kappa)
heavy 1: not shown
heavy 2: not shown
light: B1 light
notes: as for B1
Consider B14, for which, in test [1], the “He_3a/2b (IIIa/IIb)” value worked out at 0.35 ratio. In addition, the He/Con_2b in test [2] was 80 relative binding, GpH7-A5/GpH7-B3/GpL16-k0 = 100. Also, the He/Con_3a in test [3] was 27.8 relative binding, GpH7-A5/GpH7-B3/GpL16-k0 = 100.
